The target in this data set is T1, LPE1 (mature, without transit peptide) (Arabidopsis thaliana, UniProt Q9SNB7 69-665).
T1 sequence: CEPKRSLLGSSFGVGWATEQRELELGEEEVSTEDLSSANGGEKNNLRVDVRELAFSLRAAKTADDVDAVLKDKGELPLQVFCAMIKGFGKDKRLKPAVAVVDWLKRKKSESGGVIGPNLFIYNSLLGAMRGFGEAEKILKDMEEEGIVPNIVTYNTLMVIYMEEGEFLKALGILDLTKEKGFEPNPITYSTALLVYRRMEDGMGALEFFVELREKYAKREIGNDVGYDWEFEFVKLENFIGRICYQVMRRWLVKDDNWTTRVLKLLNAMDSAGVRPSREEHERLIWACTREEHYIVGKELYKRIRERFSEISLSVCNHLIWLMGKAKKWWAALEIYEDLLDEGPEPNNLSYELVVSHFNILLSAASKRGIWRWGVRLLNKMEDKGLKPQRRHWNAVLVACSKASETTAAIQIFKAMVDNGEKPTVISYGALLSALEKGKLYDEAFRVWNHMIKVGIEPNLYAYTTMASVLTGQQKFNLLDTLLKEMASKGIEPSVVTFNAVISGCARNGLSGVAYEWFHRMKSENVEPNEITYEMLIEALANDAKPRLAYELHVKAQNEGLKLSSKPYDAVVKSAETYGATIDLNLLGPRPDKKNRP
Kind of data set: EMSA. In general terms: In EMSA bound probe runs differently from free probe, usually more slowly.

This is an account of results in PMC6042084.

B1: psbA 5' UTR probe (full length, first 82 nt) (ssRNA)
RNA: UUCAUAACAAGCUCUCAAUUAUCUACUUAGAGAAUUUGUGCGCUUGGAGUCCCUGAUUAUUAAAUAAACCAAGGAUUUUACC
B1: the binding result is “binds”.
